Test results reported in US7005130.

What was measured:
[1] = molecular target: HPLC-purified recombinant ORF2 capsid protein of human HEV Sar-55 (baculovirus-expressed) (human HEV, Sar-55 strain (Pakistan)) (UniProt P33426); experiment: ELISA, antigen coated at 2 µg/ml, serum 1/200; negative control
[2] = molecular target: HPLC-purified recombinant ORF2 capsid protein of swine HEV (baculovirus-expressed) (swine HEV); experiment: as above

Chain of UniProt P33426 (P33426 112-607): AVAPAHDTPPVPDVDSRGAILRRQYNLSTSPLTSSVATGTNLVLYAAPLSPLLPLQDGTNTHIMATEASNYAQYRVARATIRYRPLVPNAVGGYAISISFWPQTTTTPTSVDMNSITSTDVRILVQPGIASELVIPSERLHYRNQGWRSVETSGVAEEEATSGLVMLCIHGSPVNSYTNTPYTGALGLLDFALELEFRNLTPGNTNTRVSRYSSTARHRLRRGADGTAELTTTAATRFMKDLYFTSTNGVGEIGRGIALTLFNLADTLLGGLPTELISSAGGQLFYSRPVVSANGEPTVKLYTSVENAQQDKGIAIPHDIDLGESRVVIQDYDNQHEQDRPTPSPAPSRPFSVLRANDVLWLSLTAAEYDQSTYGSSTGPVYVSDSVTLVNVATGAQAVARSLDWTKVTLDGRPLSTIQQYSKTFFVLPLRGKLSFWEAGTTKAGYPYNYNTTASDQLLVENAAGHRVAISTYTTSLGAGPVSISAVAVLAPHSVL

“preinoculation control chicken serum (antibody)” was tested, and the OD [1] was 0.142 OD at 405 nm and the OD [2] was 0.103 OD at 405 nm.
